# Measured values published in PMC7884425 (2021).
# T1: human HPF1 K307S (human, UniProt Q9NWY4 1-346, K307S)
# T1 sequence: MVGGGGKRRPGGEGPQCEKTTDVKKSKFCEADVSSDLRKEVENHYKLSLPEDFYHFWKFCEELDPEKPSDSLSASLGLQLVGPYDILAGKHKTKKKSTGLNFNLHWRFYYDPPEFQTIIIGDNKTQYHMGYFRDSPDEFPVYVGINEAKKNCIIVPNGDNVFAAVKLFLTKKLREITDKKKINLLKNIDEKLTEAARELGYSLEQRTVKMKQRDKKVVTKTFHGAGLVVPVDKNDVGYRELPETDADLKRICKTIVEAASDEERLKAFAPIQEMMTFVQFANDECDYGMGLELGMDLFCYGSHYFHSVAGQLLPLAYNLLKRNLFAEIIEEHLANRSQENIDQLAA
# T2: human HPF1 R239A (human, UniProt Q9NWY4 1-346, R239A)
# T2 sequence: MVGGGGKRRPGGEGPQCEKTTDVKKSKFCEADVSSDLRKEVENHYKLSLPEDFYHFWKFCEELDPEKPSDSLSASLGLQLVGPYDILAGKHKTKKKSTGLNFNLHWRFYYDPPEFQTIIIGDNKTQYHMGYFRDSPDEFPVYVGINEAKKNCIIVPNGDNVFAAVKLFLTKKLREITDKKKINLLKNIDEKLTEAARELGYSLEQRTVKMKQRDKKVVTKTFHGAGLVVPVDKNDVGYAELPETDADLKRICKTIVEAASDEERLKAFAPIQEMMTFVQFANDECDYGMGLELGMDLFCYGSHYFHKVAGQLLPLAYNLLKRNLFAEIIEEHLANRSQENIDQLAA
# T3: human HPF1 F280A (human, UniProt Q9NWY4 1-346, F280A)
# T3 sequence: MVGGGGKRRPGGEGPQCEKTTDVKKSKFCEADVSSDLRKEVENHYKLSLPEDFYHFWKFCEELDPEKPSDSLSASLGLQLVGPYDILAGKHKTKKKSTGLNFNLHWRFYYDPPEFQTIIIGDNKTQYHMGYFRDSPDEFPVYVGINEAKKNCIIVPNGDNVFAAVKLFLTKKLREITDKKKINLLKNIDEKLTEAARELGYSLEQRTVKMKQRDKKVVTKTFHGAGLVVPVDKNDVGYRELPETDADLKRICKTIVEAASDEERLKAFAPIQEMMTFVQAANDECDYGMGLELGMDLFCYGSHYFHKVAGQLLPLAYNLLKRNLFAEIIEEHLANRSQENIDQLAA
# T4: human HPF1 K216E (human, UniProt Q9NWY4 1-346, K216E)
# T4 sequence: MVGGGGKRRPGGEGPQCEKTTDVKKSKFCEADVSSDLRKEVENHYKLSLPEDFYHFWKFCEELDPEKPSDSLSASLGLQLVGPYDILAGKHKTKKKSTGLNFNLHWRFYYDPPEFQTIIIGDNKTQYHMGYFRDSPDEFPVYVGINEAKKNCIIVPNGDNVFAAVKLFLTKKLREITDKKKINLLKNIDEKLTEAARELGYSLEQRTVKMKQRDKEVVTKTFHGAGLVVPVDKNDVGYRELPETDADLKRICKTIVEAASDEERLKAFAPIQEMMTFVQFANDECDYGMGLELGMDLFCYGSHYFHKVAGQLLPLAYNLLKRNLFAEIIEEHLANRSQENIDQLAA
# T5: human HPF1 E138K (human, UniProt Q9NWY4 1-346, E138K)
# T5 sequence: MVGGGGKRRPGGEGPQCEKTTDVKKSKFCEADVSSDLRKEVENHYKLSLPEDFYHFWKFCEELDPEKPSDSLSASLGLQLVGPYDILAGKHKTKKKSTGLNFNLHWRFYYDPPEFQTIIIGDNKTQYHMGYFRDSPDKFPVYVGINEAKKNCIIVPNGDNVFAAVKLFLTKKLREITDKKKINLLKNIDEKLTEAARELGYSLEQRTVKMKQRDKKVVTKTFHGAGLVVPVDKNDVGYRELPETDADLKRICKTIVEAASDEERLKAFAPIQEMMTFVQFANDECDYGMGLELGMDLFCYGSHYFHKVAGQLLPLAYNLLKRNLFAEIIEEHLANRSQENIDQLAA
# T6: human HPF1 F139S (human, UniProt Q9NWY4 1-346, F139S)
# T6 sequence: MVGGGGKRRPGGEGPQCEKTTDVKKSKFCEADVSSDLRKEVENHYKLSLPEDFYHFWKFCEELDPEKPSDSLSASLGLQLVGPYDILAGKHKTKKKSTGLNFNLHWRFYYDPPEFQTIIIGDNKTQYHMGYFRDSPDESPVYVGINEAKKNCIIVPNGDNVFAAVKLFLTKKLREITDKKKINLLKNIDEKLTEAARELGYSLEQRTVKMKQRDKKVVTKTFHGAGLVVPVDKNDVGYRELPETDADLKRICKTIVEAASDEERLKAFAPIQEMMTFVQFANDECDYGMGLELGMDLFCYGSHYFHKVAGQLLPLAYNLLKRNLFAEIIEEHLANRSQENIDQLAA
# B1: human PARP1-CAT ΔHD (661-678-GSGSGSGG-787-1014) (domain or fragment)
# chain: TKSKLPKPVQDLIKMIFDGSGSGSGGKDPIDVNYEKLKTDIKVVDRDSEEAEIIRKYVKNTHATTHNAYDLEVIDIFKIEREGECQRYKPFKQLHNRRLLWHGSRTTNFAGILSQGLRIAPPEAPVTGYMFGKGIYFADMVSKSANYCHTSQGDPIGLILLGEVALGNMYELKHASHISKLPKGKHSVKGLGKTTPDPSANISLDGVDVPLGTGISSGVNDTSLLYNEYIVYDIAQVNLKYLLKLKFNFKTSLW
# How the values were obtained:
# human HPF1 K307S [1] = target: T1, human HPF1 K307S; experiment: ITC; replicate 2
# human HPF1 R239A [2] = target: T2, human HPF1 R239A; experiment: ITC; replicate 2
# human HPF1 F280A [3] = target: T3, human HPF1 F280A; experiment: ITC; replicate 2
# human HPF1 K216E = target: T4, human HPF1 K216E; experiment: ITC; replicate 2
# human HPF1 E138K [4] = target: T5, human HPF1 E138K; experiment: ITC; replicate 2
# human HPF1 F139S [5] = target: T6, human HPF1 F139S; experiment: ITC; replicate 2
# human HPF1 K307S [6] = target: T1, human HPF1 K307S; experiment: ITC; replicate 1
# human HPF1 R239A [7] = target: T2, human HPF1 R239A; experiment: ITC; replicate 1
# human HPF1 F280A [8] = target: T3, human HPF1 F280A; experiment: ITC; replicate 1
# human HPF1 E138K [9] = target: T5, human HPF1 E138K; experiment: ITC; replicate 1
# human HPF1 F139S [10] = target: T6, human HPF1 F139S; experiment: ITC; replicate 1
# [11] = target: B1; experiment: ITC; replicate 2
# PARP1 D756A = PARP1 D756A (human, UniProt P09874 1-1014, D756A); experiment: ITC; in the presence of DNA
Binder,Ka (human HPF1 K307S [1]),Ka (human HPF1 R239A [2]),Ka (human HPF1 F280A [3]),Ka (human HPF1 K216E),Ka (human HPF1 E138K [4]),Ka (human HPF1 F139S [5]),Ka (human HPF1 K307S [6]),Ka (human HPF1 R239A [7]),Ka (human HPF1 F280A [8]),Ka (human HPF1 E138K [9]),Ka (human HPF1 F139S [10]),Ka [11],Ka (PARP1 D756A)
B1,123000 M⁻¹,402000 M⁻¹,212000 M⁻¹,725000 M⁻¹,583000 M⁻¹,440000 M⁻¹,95700 M⁻¹,432000 M⁻¹,147000 M⁻¹,617000 M⁻¹,400000 M⁻¹,–,–
"human HPF1 (histone PARylation factor 1), wild-type (natural protein) MVGGGGKRRPGGEGPQCEKTTDVKKSKFCEADVSSDLRKEVENHYKLSLPEDFYHFWKFCEELDPEKPSDSLSASLGLQLVGPYDILAGKHKTKKKSTGLNFNLHWRFYYDPPEFQTIIIGDNKTQYHMGYFRDSPDEFPVYVGINEAKKNCIIVPNGDNVFAAVKLFLTKKLREITDKKKINLLKNIDEKLTEAARELGYSLEQRTVKMKQRDKKVVTKTFHGAGLVVPVDKNDVGYRELPETDADLKRICKTIVEAASDEERLKAFAPIQEMMTFVQFANDECDYGMGLELGMDLFCYGSHYFHKVAGQLLPLAYNLLKRNLFAEIIEEHLANRSQENIDQLAA",–,–,–,–,–,–,–,–,–,–,–,642000 M⁻¹,333000 M⁻¹
